From IntAct's records for PubMed 15883825

B1: F-box protein MET30 (Saccharomyces cerevisiae), P39014 (parent)
chain: MRRERQRMMSFEDKDKDDLDNSNSNNSSEMTDTAMMPPLKRLLITGSSDDLAQGSSGKKKMTMATRSPSSSPDLATNDSGTRVQPLPEYNFTKFCYRHNPDIQFSPTHTACYKQDLKRTQEINANIAKLPLQEQSDIHHIISKYSNSNDKIRKLILDGILSTSCFPQLSYISSLVTHMIKIDFISILPQELSLKILSYLDCQSLCNATRVCRKWQKLADDDRVWYHMCEQHIDRKCPNCGWGLPLLHMKRARIQQNSTGSSSNADIQTQTTRPWKVIYRERFKVESNWRKGHCRIQEFKGHMDGVLTLQFNYRLLFTGSYDSTIGIWDLFTGKLIRRLSGHSDGVKTLYFDDRKLITGSLDKTIRVWNYITGECISTYRGHSDSVLSVDSYQKVIVSGSADKTVKVWHVESRTCYTLRGHTEWVNCVKLHPKSFSCFSCSDDTTIRMWDIRTNSCLKVFRGHVGQVQKIIPLTIKDVENLATDNTSDGSSPQDDPTMTDGADESDTPSNEQETVLDENIPYPTHLLSCGLDNTIKLWDVKTGKCIRTQFGHVEGVWDIAADNFRIISGSHDGSIKVWDLQSGKCMHTFNGRRLQRETQHTQTQSLGDKVAPIACVCIGDSECFSGDEFGCVKMYKFDLND
partner: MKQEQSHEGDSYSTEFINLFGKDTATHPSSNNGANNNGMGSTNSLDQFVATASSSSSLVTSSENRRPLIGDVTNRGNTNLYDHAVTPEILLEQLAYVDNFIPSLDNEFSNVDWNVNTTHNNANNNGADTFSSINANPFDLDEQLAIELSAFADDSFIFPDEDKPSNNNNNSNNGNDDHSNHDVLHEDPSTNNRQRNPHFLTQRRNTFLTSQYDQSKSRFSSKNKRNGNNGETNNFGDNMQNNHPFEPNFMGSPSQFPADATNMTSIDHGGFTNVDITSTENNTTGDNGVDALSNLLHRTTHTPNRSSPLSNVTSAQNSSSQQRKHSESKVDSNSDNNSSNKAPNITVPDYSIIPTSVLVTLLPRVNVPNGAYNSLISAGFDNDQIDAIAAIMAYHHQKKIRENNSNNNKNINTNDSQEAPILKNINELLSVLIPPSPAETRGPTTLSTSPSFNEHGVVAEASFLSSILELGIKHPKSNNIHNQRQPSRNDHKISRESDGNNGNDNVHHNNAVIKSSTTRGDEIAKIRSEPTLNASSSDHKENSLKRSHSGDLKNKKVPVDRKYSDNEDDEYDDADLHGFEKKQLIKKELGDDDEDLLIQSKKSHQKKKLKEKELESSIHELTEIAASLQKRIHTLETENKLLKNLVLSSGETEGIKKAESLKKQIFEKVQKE

Variants of: B1
Settings: with met4_yeast MET4, P32389

| effect of a mutation on the interaction | Variant |
| --- | --- |
| decreasing interaction | L386D;N425A;Q467A;L530D |
